From patent US20120172306A1, “Use of HASF as a Protective Agent Against Ischemic Tissue Damage” (Duke University, priority 2009, published 2012)

System: H9C2 cardiac myoblasts
Assay: Annexin V/PI staining of H2O2 induced apoptosis
Type: cell-based, rat
Details: 10 nM, 30 min pre-incubation, 100 μM H2O2 2 h
Method: FIG. 2A is a bar graph showing % apoptosis. H9C2 cardiac myoblasts were pre-incubated ±10 nM of HASF recombinant protein for 30 min, and then challenged with 100 μM of H2O2 for 2 h. Apoptosis was quantified on a flow cytometer with Annexin V and Propidium Iodine (PI) staining. The sum of Annexin V positive cells+Annexin V/PI double positive cells is presented as percentage (%) of total cells. Human recombinant IGF protein was used as a positive control.
Rat cardiac myoblasts-H9C2 cells were obtained from ATCC and cultured in DMEM medium containing 10% of FBS, supplemented with 2 mM of L-glutamine, 100 U/ml of penicillin and 100 μg/ml of streptomycin (Invitrogen). Cells were seeded one day before at 1×10^5/well in 6-well plates. The following day, the cells were treated for 30 min with 10 nM of HASF the recombinant protein, the MBP or PBS were used as controls. Then the cells were challenged with 100 μM of H2O2 for 2 h. The attached and floating cells were collected. H2O2 induced apoptosis was then analyzed on a flow cytometer for Annexin V/Propidium Iodine double staining with the Vybrant Apoptosis Assay Kit #2 (Invitrogen).

B1: HASF: Hypoxia regulated Akt MSC Factor, secreted protein encoded by C3orf58; recombinant human protein without N-signal sequence, SEQ ID NO:1 or 2 (protein, UniProt Q8NDZ4 36-430, looked up)
Divergent protein kinase …: LASWQRNELTDRRFLQLNKCPACFGTSWCRRFLNGQVVFEAWGRLRLLDFLNVKNVYFAQYGEPREGGRRRVVLKRLGSQRELAQLDQSICKRATGRPRCDLLQAMPRTEFARLNGDVRLLTPEAVEGWSDLVHCPSQRLLDRLVRRYAETKDSGSFLLRNLKDSERMQLLLTLAFNPEPLVLQSFPSDEGWPFAKYLGACGRMVAVNYVGEELWSYFNAPWEKRVDLAWQLMEIAEQLTNNDFEFALYLLDVSFDNFAVGPRDGKVIIVDAENVLVADKRLIRQNKPENWDVWYESKFDDCDKEACLSFSKEILCARATVDHNYYAVCQNLLSRHATWRGTSGGLLHDPPSEIAKDGRLEALLDECANPKKRYGRFQAAKELREYLAQLSNNVR
modifications: 6xHis tag
For B1, the “decrease of H2O2 induced apoptosis (Annexin V/PI staining)” value was ~50%.
